The text below walks through data of patent US20070037246A1 (LIFESENSORS, published 2007).

The target of this test is 6xHis-CTHS-GFP fusion protein (yeast (SUMO/Smt3 part)). As to the kind of experiment: mixing of purified proteins in solution, complex shown by Ulp1 cleavage (FIG. 7A). As for the experimental part: FIG. 7A depicts the experimental results obtained when combining NTHS and CTHS-GFP in solution, resulting in assembly and formation of a cleavable complex. 6xHis-CTHS-GFP fusion protein purified from E. coli was incubated with SUMO hydrolase Ulp1 and 6xHis-NTHS (lanes […]), with 6xHis-NTHS (lanes 1-3) or Ulp1 (lanes 7-9). Release of free GFP can be observed only when all the components are present in the reaction mix. […] Furthermore, purification tags such as, but not limited to 6xHis, GST, MBP, a sequence facilitating covalent coupling to solid support such as Cys residue, may be attached to either the amino- and/or carboxy-termini of NTHS.

B1: 6xHis tagged NTHS (other)
chain: MGHHHHHHGSDSEVNQEAKPEVKPEVKPETHINLKVSDGSSEIFFKIKKTTPLRRLMEAFAK
notes: Purified from E. coli and used in solution in the reconstitution and cleavage experiments; also called 6xHis-NTHS
For the molecule B1, the binding result was “binds”.
